Measured values as given in FireProtDB (doi:10.1021/bi300982v).

B1: Cytochrome c-552, P04164 (parent)
chain: QADGAKIYAQCAGCHQQNGQGIPGAFPPLAGHVAEILAKEGGREYLILVLLYGLQGQIEVKGMKYNGVMSSFAQLKDEEIAAVLNHIATAWGDAKKVKGFKPFTAEEVKKLRAKKLTPQQVLAERKKLGLK

Variants of: B1
Conditions: Thermus thermophilus, pH 7, sodium phosphate 50 mM, transition: 2, reversible: yes, structure 1C52, whole UniProt chain shown; for denaturant midpoint (higher = more stable): 25 °C, GdnHCl; for Tm / change of melting temperature, mutant - wild type (higher = more stable) / heat capacity change of unfolding / unfolding enthalpy (calorimetric) / unfolding free energy: Thermal, CD

Variant	denaturant midpoint (higher = more stable) (absorbance) [M]	denaturant midpoint (higher = more stable) (far-UV-CD) [M]	denaturant midpoint (higher = more stable) (heme-CD) [M]	Tm [°C]	change of melting temperature, mutant - wild type (higher = more stable) [°C]	heat capacity change of unfolding [kcal/mol/K]	unfolding enthalpy (calorimetric) [kcal/mol]	unfolding free energy [kcal/mol]
QADGAKIYAQCAGCHQQNGQGIPGAFPPLAGHVAEILAKEGGREYLILVLLYGLQGQIEVKGMKYNGVHSSFAQLKDEEIAAVLNHIATAWGDAKKVKGFKPFTAEEVKKLRAKKLTPQQVLAERKKLGLK	3.7	4	3.3	99	4	0.51	59.3	8.13
QADGAKIYAQCAGCHQQNGQGIPGAFPPLAGHVAEILAKEGGREYLILVLLYGLQGQIEVKGMKYNGVASSFAQLKDEEIAAVLNHIATAWGDAKKVKGFKPFTAEEVKKLRAKKLTPQQVLAERKKLGLK	4.2	4.7	4.5	93	-2	0.29	28.2	2.39
